T1: Suppressor of Hairy wing [Su(Hw)] (Drosophila (endogenous in 0-24 h Oregon …, UniProt P08970 1-941))
T1 construct: endogenous protein in embryonic nuclear extract; source: endogenous, nuclear extract of 0-24 h Drosophila embryos
T1 sequence (looked up): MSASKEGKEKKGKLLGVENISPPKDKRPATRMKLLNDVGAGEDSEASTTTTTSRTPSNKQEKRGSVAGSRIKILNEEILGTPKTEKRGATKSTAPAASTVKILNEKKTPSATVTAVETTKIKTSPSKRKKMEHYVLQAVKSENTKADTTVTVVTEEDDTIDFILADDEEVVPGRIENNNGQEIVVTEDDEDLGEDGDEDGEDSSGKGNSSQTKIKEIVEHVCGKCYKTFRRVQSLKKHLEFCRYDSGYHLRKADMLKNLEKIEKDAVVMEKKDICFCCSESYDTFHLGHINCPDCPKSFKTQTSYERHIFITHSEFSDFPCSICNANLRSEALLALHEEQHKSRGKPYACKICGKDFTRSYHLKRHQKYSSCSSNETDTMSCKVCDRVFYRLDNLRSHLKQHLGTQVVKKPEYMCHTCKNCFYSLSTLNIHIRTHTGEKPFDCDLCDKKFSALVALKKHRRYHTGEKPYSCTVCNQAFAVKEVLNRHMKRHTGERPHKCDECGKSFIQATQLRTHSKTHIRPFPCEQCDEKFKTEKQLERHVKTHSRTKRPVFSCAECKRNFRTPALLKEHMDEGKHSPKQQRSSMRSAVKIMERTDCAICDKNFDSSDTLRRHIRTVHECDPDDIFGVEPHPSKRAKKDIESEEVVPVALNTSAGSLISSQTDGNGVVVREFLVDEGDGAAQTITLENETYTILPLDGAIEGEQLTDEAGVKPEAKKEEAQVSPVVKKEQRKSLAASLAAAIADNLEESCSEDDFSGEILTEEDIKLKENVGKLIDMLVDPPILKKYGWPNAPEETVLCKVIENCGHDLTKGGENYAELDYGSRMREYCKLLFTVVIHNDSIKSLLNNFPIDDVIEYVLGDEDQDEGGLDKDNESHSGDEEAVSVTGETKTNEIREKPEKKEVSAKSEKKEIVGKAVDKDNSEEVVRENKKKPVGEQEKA

T2: Centrosomal protein 190 (CP190) (Drosophila (endogenous in 0-24 h Oregon …, UniProt Q24478 1-1096))
T2 construct: Centrosomal protein 190 (CP190), universal insulator protein of Drosophila; endogenous protein in embryonic nuclear extract; source: endogenous, nuclear extract of 0-24 h Drosophila embryos
T2 sequence (looked up): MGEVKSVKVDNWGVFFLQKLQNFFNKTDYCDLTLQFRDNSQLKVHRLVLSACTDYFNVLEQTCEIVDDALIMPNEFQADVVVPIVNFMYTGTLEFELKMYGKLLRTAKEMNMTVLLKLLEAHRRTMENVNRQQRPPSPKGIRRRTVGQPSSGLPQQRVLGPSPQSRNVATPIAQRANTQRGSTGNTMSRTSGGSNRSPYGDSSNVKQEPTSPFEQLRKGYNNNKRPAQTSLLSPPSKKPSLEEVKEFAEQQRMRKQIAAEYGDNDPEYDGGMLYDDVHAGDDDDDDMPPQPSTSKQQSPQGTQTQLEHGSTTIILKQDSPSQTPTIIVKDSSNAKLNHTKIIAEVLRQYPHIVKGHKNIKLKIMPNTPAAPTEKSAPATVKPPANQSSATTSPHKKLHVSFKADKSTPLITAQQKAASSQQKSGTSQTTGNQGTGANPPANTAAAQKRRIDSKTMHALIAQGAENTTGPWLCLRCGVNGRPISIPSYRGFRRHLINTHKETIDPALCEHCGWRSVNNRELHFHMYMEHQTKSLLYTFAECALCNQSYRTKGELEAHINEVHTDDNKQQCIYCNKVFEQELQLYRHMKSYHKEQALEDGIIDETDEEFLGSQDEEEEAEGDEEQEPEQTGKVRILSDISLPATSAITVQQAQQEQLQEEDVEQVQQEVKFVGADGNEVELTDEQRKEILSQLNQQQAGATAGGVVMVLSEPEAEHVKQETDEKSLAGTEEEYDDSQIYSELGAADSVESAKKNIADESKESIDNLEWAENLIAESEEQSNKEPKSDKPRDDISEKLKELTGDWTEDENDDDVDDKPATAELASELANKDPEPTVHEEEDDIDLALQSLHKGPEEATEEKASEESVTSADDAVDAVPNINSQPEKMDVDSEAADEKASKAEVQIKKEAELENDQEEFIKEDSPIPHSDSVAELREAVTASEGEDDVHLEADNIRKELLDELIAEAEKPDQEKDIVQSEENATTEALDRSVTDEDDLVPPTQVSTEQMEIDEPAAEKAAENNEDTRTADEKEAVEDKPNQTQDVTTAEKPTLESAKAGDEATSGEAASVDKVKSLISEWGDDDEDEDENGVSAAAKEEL

B1: Motif 1 Binding Protein (M1BP) (natural protein, UniProt Q9VHM3 1-418, looked up)
chain: MSKSALKHLKSTCRVCAKYASNKRSPKLFERSNTKMIDNIEALTGLRLENYGCLPDQICECCSMELASAVKLRERCIAAQRELLLGLTEEQRQGISAFYRAAVMGEDIVQTVKTPDDDEVYATYQEIVLEEPKEEIDDTKVEYDNTYYEVAEGHAGEDDAASLIEEADYDSIMAEDEEQQQTLELDEDTELIVGDVNDAYVYDSDDEVAVLDNVLDDEYEHENIVVKKCSLPPKPKVRSDDARRRGTGGVYICEQCGNHIKGRMAFELHCRRHRGDKQFGCELCQSRFCTTSELKRHMRKHTGERPFACKYCGRCFTDYTTRVKHERTHTNERPYVCGTCGKAFTTGYILKNHMLIHSGERAYRCELCDKSFMLPTHLSTHFRSGVHKRHLEKAEMKQVLEQEQKRELKEEEEDSLHI
notes: endogenous protein in embryonic nuclear extract; source: endogenous, nuclear extract of 0-24 h Drosophila embryos
B2: Modifier of mdg4 [Mod(mdg4)] 67.2 kDa isoform [Mod(mdg4)67.2] (natural protein, UniProt Q86B87 1-610, looked up)
chain: MADDEQFSLCWNNFNTNLSAGFHESLCRGDLVDVSLAAEGQIVKAHRLVLSVCSPFFRKMFTQMPSNTHAIVFLNNVSHSALKDLIQFMYCGEVNVKQDALPAFISTAESLQIKGLTDNDPAPQPPQESSPPPAAPHVQQQQIPAQRVQRQQPRASARYKIETVDDGLGDEKQSTTQIVIQTTAAPQATIVQQQQPQQAAQQIQSQQLQTGTTTTATLVSTNKRSAQRSSLTPASSSAGVKRSKTSTSANVMDPLDSTTETGATTTAQLVPQQITVQTSVVSAAEAKLHQQSPQQVRQEEAEYIDLPMELPTKSEPDYSEDHGDAAGDAEGTYVEDDTYGDMRYDDSYFTENEDAGNQTAANTSGGGVTATTSKAVVKQQSQNYSESSFVDTSGDQGNTEAQAATSASATKIPPRKRGRPKTKVEDQTPKPKLLEKLQAATLNEEASEPAVYASTTKGGVKLIFNGHLFKFSFRKADYSVFQCCYREHGEECKVRVVCDQKRVFPYEGEHVHFMQASDKSCLPSQFMPGESGVISSLSPSKELLMKNTTKLEEADDKEDEDFEEFEIQEIDEIELDEPEKTPAKEEEVDPNDFREKIKRRLQKALQNKKK
notes: Modifier of mdg4, the 67.2 kDa isoform, Drosophila; The gene has many isoforms; the 67.2 kDa isoform is meant; to be checked; source: endogenous, nuclear extract of 0-24 h Drosophila embryos

Common to all, as to assay: co-IP; 500 ug nuclear extract of 0-24 h Drosophila embryos incubated overnight at 4 C with antiserum (anti-Su(Hw), anti-CP190, anti-Mod(mdg4)67.2 or anti-M1BP; normal serum as control) cross-linked to Protein A or G Sepharose; washed twice with HBSMT and once with HBSM; western blotting; efficiency as percent of total input protein
Holding throughout (details): partners not purified
(In general: Immunoblotting shows a protein as a band on a membrane.)

In assay [1] the target is T1, Suppressor of Hairy wing [Su(Hw)].
Assay [2] concerns the target B2.
Assay [3] concerns the target T2, Centrosomal protein 190 (CP190).
Assay [4] has as its target B1.

With B1, the “percent of total protein immunoprecipitated with anti-Su(Hw)” value in assay [1] came to 5.3%. Further, the “percent of total protein immunoprecipitated with anti-Mod(mdg4)67.2” value in assay [2] came out at 3%. Moreover, the “percent of total protein immunoprecipitated with anti-CP190” value in assay [3] turned out to be 3.8%.

As for B2, the “percent of total protein immunoprecipitated with anti-Su(Hw)” value in assay [1] is 1.9%. Also, the “percent of total protein immunoprecipitated with anti-M1BP” value in assay [4] was 1.4%. Besides, the “percent of total protein immunoprecipitated with anti-CP190” value in assay [3] was 8.2%.

These data come from PMC8263732, “M1BP cooperates with CP190 to activate transcription at TAD borders and promote chromatin insulator activity” (Nature Communications, 2021).
